Experimental data taken from IntAct's records for PubMed 25819436.

Experiments:
[1] = biological target: sh3g1_rat Sh3gl1 (UniProt O35964)
[2] = biological target: amph_rat Amph (UniProt O08838)
[3] = biological target: sh3g2_rat Sh3gl2 (UniProt O35179)
[4] = biological target: grb2_human GRB2 (UniProt P62993)

Sequence of SLIT-ROBO Rho GTPase-activating protein 3 (Homo sapiens), O43295 P1056A;P1059A (O43295 whole entry P1056A/P1059A): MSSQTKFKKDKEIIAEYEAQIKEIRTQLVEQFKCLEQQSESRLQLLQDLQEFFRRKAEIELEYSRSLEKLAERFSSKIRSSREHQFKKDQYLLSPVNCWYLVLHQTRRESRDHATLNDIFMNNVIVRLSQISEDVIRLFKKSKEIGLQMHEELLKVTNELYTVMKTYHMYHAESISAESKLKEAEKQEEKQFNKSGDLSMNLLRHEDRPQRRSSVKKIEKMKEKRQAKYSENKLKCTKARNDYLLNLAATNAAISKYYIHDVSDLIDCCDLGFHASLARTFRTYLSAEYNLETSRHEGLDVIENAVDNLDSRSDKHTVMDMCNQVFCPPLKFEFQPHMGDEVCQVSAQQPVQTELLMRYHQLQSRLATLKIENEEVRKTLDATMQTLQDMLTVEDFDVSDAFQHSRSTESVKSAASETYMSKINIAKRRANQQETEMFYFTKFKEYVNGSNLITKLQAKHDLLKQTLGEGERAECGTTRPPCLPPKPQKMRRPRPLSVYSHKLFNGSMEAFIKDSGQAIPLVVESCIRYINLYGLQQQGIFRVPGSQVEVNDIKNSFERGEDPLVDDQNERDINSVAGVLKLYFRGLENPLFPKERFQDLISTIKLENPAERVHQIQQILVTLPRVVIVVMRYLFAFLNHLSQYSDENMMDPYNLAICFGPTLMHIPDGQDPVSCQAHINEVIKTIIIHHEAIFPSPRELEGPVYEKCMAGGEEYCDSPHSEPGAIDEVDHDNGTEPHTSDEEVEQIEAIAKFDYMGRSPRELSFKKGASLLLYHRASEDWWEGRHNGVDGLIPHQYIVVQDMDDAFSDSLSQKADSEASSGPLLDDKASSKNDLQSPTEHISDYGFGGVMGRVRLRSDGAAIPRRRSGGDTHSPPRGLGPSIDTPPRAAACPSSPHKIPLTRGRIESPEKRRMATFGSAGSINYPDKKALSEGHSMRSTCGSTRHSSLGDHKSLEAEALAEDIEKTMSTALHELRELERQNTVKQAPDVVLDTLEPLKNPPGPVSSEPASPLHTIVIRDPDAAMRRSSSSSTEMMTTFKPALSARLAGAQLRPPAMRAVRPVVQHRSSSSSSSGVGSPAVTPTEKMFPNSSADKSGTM
Sequence of sh3g1_rat Sh3gl1 (O35964 whole entry): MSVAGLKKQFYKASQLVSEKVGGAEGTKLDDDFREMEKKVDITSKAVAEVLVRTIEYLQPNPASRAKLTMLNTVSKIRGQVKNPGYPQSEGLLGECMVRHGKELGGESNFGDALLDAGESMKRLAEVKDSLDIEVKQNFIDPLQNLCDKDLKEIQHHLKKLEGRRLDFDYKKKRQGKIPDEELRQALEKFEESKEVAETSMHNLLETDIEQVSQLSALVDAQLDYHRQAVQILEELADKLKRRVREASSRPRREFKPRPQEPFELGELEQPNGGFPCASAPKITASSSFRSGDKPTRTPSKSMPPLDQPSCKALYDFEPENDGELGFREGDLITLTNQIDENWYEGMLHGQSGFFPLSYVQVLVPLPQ
Sequence of amph_rat Amph (O08838 whole entry): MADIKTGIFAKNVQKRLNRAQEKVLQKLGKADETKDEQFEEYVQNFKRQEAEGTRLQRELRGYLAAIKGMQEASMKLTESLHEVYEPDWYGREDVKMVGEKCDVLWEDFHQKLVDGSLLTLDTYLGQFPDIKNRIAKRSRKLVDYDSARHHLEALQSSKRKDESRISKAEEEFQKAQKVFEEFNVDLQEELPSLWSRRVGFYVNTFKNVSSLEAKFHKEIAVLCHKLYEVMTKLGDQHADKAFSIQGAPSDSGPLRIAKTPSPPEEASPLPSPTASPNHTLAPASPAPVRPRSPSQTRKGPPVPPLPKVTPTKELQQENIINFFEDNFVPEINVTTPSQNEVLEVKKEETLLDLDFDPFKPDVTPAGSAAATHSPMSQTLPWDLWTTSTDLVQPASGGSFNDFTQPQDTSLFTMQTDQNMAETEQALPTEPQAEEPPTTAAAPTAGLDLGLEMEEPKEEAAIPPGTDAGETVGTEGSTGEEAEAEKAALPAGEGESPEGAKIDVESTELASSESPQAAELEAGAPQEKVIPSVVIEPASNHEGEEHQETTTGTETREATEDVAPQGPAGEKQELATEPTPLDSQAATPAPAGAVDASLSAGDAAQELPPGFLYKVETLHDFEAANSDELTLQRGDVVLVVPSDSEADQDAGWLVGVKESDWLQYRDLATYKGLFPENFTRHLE
Sequence of sh3g2_rat Sh3gl2 (O35179 whole entry): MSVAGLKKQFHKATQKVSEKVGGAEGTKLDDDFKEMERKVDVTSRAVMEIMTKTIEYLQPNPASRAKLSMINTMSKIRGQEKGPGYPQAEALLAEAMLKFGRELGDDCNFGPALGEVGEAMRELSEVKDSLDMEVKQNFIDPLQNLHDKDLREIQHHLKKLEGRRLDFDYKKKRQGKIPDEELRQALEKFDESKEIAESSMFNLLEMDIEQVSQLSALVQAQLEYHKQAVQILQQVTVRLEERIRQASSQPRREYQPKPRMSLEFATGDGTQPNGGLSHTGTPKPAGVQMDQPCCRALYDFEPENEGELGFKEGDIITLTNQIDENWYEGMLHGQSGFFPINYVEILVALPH

effect of a mutation on the interaction [1]: disrupting interaction | effect of a mutation on the interaction [2]: disrupting interaction | effect of a mutation on the interaction [3]: disrupting interaction | effect of a mutation on the interaction [4]: disrupting interaction
Substance: SLIT-ROBO Rho GTPase-activating protein 3 (Homo sapiens), O43295 P1056A;P1059A
